Tests used:
[1] = target: T1, puroindoline A (Triticum aestivum, UniProt P33432 29-148); test: SPR; same sensorgrams as the kinetic fit (immobilised (PQQPY)8, PINA 2 to 20 uM flowed, 25°C, Hepes buffer pH 7.4); steady-state fit, 1:1 Langmuir model; settings: both partners purified
T1 construct: puroindoline A (PINA) of Triticum aestivum, purified from grain of cv; about 13 kDa, five disulfide bonds; matured by cleavages at both N- and C-termini, with forms that differ at the C-terminus; The Pina allele of cv; also called PINA; source: purified from the hard wheat Triticum aestivum cultivar Recital
T1 sequence (looked up): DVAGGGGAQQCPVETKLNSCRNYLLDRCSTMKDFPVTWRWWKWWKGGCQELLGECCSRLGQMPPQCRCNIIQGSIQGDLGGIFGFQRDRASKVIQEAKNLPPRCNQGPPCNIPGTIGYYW

[2] = target: T1, puroindoline A; test: SPR; Biacore X100, CM5 chip; gliadin or (PQQPY)8 covalently immobilised, PINA flowed at 10 uL/min, 25°C, Hepes buffer pH 7.4 (10 mM Hepes, 150 mM NaCl, 3.4 mM EDTA, 0.005% P20); global kinetic fit, 1:1 Langmuir model, KD=kd/ka; settings: both partners purified

B1: recombinant polypeptide (PQQPY)8 (peptide)
chain: PQQPYPQQPYPQQPYPQQPYPQQPYPQQPYPQQPYPQQPY
notes: eight repeats of the pentapeptide PQQPY, written out from the printed formula (PQQPY)8; mimics the consensus repeat domain of gliadins; measured mass 4924.5 Da (theoretical 4924.3 Da); Released from thioredoxin-DP-(PQQPY)8 by formic acid; the printed theoretical mass of 4924.3 Da fits the 40 residues of eight repeats with no further residue; also called (Pro-Gln-Gln-Pro-Tyr)8; repetitive domain …
**Q.** For B1, which Kd [1] is on record?
**A.** The Kd was 7.22 µM.

**Q.** What about the Kd [2] of the same binder?
**A.** The Kd was 0.29 µM.

Source: paper doi:10.1101/830265, “Relationships between puroindoline-prolamin interactions and wheat grain hardness” (bioRxiv, 2019)
